Measurements from article PMC3762362.

Target: Endogenous bovine Arp2/3 complex, A7MB62;P61157
Experiment: fluorescence anisotropy competition assay
Settings: chain shown with the change; reporter 20 nM VVCA-A462C-AF594; mixture incubated for 10 min prior to measurement; parent: est. 6.0 nM; read off a plot

B1: GST-VCA (GST fusion of N-WASP residues 432–505), O00401 I467A (protein)
chain: SGRDALLDQIRQGIQLKSVADGQESTPPTPAPTSGAVGALMEVMQKRSKAIHSSDEDEDEDDEEDFEDDDEWED
Kd: 20 nM
